Assay results as given in patent US20110065592A1.

Target: RNA Pol II (UniProt P24928)
Assay: cell-based or functional assay

Substance: anti RNA Pol II antibody (Santa Cruz sc-899)
- cT of real-time PCR for GAPDH gDNA released from wells coated with the RNA Pol II antibody, compared with wells coated with the unspecific anti IgG antibody: < 5 cT
- delta between the cT's obtained using the specific RNA Pol II antibody and the unspecific anti-mouse IgG antibody (all three washing procedures): > 0 cT
- delta between the cT's obtained using the specific RNA Pol II antibody and the unspecific anti-mouse IgG antibody (washing with LS buffer and TE): 3.3 cT
